From publication PMC12462528, “Molecular basis of ParA ATPase activation by the CTPase ParB during bacterial chromosome segregation” (Nature Communications, 2025) come the findings set out here.

One data set addresses T1, ParA (wild type) (Myxococcus xanthus DK1622, UniProt Q1CVJ3 1-283).
T1 construct: ParA of Myxococcus xanthus DK1622, translation product of ORF MXAN_7477; No tag cleavage step is described; also called His6-ParA; wild-type ParA; source: E. coli Rosetta(DE3)pLysS, purified (HisTrap HP, HiTrap Q HP)
T1 sequence (looked up): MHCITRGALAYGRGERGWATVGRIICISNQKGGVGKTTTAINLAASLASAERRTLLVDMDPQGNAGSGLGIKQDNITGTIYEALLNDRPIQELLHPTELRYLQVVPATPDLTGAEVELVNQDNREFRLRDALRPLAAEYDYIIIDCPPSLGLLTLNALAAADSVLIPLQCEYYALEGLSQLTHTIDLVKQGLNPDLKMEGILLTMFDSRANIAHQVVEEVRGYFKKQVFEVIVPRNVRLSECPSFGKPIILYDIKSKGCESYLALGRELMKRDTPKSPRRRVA
The data set can be described thus: HDX-MS; 50 µM ParA or ParA-D60A with 1 mM ATP, with or without 1 mM ParB_(1-20) and/or 1 mg/mL salmon sperm DNA; 25 °C (Datasets 1 and 2). The note with it: both partners purified.

In another data set the target is T2, His6-ParA_(21-274)-D60A (Myxococcus xanthus DK1622, UniProt Q1CVJ3 21-274, D60A).
T2 construct: For NMR the protein was 2H/13C/15N-labelled; source: E. coli Rosetta(DE3)pLysS, purified (as His6-ParA)
T2 sequence (looked up): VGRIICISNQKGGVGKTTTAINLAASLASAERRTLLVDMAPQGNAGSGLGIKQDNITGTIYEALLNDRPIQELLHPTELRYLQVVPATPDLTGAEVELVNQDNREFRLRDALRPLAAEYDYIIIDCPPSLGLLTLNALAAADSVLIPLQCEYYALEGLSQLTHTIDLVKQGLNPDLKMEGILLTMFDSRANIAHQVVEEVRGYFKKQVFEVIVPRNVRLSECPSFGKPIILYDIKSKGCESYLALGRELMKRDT
The data set is described as follows: NMR titration; 2H/13C/15N-labelled ParA_(21-274)-D60A (300 µM) titrated with unlabelled ParB_(1-20) to 1:5.8; TROSY 1H-15N HSQC, 298 K, 50 mM HEPES pH 6.8, 150 mM KCl, 5 mM MgSO4, 1 mM DTT, 1 mM ATP. Particulars: both partners purified.

Data set [1] concerns the molecule itself. The data set can be described thus: HDX-MS; 50 µM ParA or ParA-D60A with 1 mM ATP, with or without 1 mM ParB_(1-20) and/or 1 mg/mL salmon sperm DNA; 25 °C (Datasets 1 and 2).

B1: ParB_(1-20) peptide (peptide, UniProt Q1CVJ4 1-20, looked up)
peptide: MVKADMQKRALGRGLSALIP
notes: also called N-terminal peptide of ParB; source: synthetic peptide
Turning to B1, the binding result with ParA (wild type) and in the data set with His6-ParA_(21-274)-D60A was “binds” in each case.

B2: ParA-D60A (natural protein, Myxococcus xanthus DK1622, UniProt Q1CVJ3 1-283, looked up)
chain: MHCITRGALAYGRGERGWATVGRIICISNQKGGVGKTTTAINLAASLASAERRTLLVDMAPQGNAGSGLGIKQDNITGTIYEALLNDRPIQELLHPTELRYLQVVPATPDLTGAEVELVNQDNREFRLRDALRPLAAEYDYIIIDCPPSLGLLTLNALAAADSVLIPLQCEYYALEGLSQLTHTIDLVKQGLNPDLKMEGILLTMFDSRANIAHQVVEEVRGYFKKQVFEVIVPRNVRLSECPSFGKPIILYDIKSKGCESYLALGRELMKRDTPKSPRRRVA
notes: ParA of Myxococcus xanthus DK1622 lacking the catalytic aspartic acid D60; also called ATPase-deficient ParA variant; source: E. coli Rosetta(DE3)pLysS, purified (as His6-ParA)
In the case of B2, in data set [1], the binding result is recorded as “binds”.
